From doi:10.1101/619858

Target: α-Synuclein (α-Syn), wild type (UniProt P37840)

α-Synuclein (α-Syn), wild type (from UniProt P37840 1-140) (natural protein)
percent of the protein as fibrils (day 5): 2% | percent of the protein as oligomers (day 5): 8%
